Assay results: article doi:10.1101/2023.06.09.544317 (bioRxiv, 2023)

B1: Q8U0N8, uncharacterized protein of unknown function from Pyrococcus furiosus (natural protein, UniProt Q8U0N8 1-392, looked up)
chain: MSESINNITKPKERRDFVVMAGMRKDGTIDFIKVYALNEKLAIEVLEAFLKENNIHPSDFIVIQRGYEDVKDKKAITTRSEEELSAMLGRLGLRLVSNGVLYTDGIDKLYQITAISRELFESLQKEKREIFEDVQEKITFNFSKVDLPEKYVKKLRLLELMEDTIIFNMAELEIPNLLKAIVEGTVLIPRFLEKEDLIIRIFDEELHEYRGSYFDKVLIKPPIIHWDFYLDSLEDFSFKKVEESIYIAPLFLRATGGFLILTEPPEDLVKTLLKLKKRGEVRTILEGKRITIPINFTLIVDTRHPERYAGLKFPIRINLPPLDDETFLKVLETNLGITPPTEIVRIFPPDYKTFLGVELIKNLFEKLKLTEKGKDEVSLLKEAATIITGGTP
B2: cysteine tRNA ligase from archaea (Q8U227) (enzyme, P. furiosus, UniProt Q8U227 1-477, looked up)
chain: MLKVYNTLTKQKEEFKPLREGEVKMYVCGPTVYDYPHLGHARTYIAFDVIRRYLEHKGYTVLMVMNFTDIDDKIIKRARETGEDPKELAERFIKIFLEDMEALKVKPADIYPRVTDHIDDIIEFIGKLKEKGYAYEGSDGIYFEVKKFPEYGKLSGVKIEDLQKGARVEPGEGKKNPEDFALWKKAKPGEPKWDSPWGEGRPGWHIECSVMSSKYLGESFDIHGGGNDLIFPHHENEIAQSEACFGHEWVKYWLHTGFVMVKGEKMSKSLGNFVTIRELLKRYEPEVIRFFVLQKHYRSPLEYTEEGLQHAKNNLQRLYNTLENIRVALRNAEISYTWGELEFKTYEIIREGKRKFYEAMDDDFNTAEALKAVFEVANAINKYLTEANKPKESILRKALEFFKIVSEVFGVFEDYFREETKEREESEKLIELLVEVRKQLRKEKRYELADMIREELKKLGIQLEDRGSETTWKRIIT

What was measured:
cryo-EM structure = target: the molecule itself; test: cryo-EM structure
mass photometry = target: the molecule itself; test: mass photometry

Protein | stoichiometry N (cryo-EM structure) | stoichiometry N (mass photometry)
B1 | 6 | –
B2 | – | 2
